Test results: patent US20180016620A1 (KITE PHARMA, published 2018)
No end group written: not given here.

Legend:
[1] = target: T1, GSTSGSGKPGSGEG SEQ ID NO: 486 (also: biotin on N-terminus or on added C-terminal Lys, which not given here); experiment: ELISA: antibody captured on Protein G plate, biotinylated peptide, streptavidin-HRP, chemiluminescence; y axis 0 to 7000000 without unit
T1 construct: also called 18 mer lacking its 4 C-terminal residues
T1 peptide: GSTSGSGKPGSGEG
Description: (§1) The antibodies (i.e., antigen binding molecules) were epitope mapped via ELISA using the full length peptide, […] (SEQ ID NO:1), and variants truncated on either the N- or C-terminus and containing either a biotin moiety on the N-terminus, or a lysine residue with a biotin moiety on the C-terminus. The antibodies were captured in 96-well plate format using plates pre-coated with Protein G (Pierce). The plates were washed 6× in PBST buffer followed by incubation with target peptides. An additional 6× wash was performed with PBST and the antibodies were further incubated with streptavidin-HRP. Upon a final 6× wash in PBST, signal was detected and quantified via enhanced chemiluminescense kit (ECL, from GE Healthcare) and a Varioskan Flash plate reader (Thermo Fisher).

[2] = target: T2, GKPGSGEGSTKG SEQ ID NO: 490 (also: biotin on N-terminus or on added C-terminal Lys, which not given here); experiment: as above
T2 construct: also called 18 mer lacking its 6 N-terminal residues
T2 peptide: GKPGSGEGSTKG
Description: as §1

[3] = target: T3, full length 18 mer linker peptide GSTSGSGKPGSGEGSTKG (also: biotin on N-terminus or on added C-terminal Lys, which not given here); experiment: as above
T3 construct: Synthetic linker peptide; also called full-length linker peptide; Whitlow linker
T3 peptide: GSTSGSGKPGSGEGSTKG
Description: as §1

[4] = target: T4, GSGKPGSGEGSTKG SEQ ID NO: 489 (also: biotin on N-terminus or on added C-terminal Lys, which not given here); experiment: as above
T4 construct: also called 18 mer lacking its 4 N-terminal residues
T4 peptide: GSGKPGSGEGSTKG
Description: as §1

[5] = target: T5, GSTSGSGKPGSGEGST SEQ ID NO: 485 (also: biotin on N-terminus or on added C-terminal Lys, which not given here); experiment: as above
T5 construct: also called 18 mer lacking its 2 C-terminal residues
T5 peptide: GSTSGSGKPGSGEGST
Description: as §1

FL_peptide_OVA = target: T6, FL_peptide_OVA (also: conjugated to ovalbumin, site and chemistry not given here); experiment: ELISA as for the peptides of the figure; y axis 0 to 7000000 without unit
T6 construct: not shown: the ovalbumin carrier protein
T6 peptide: GSTSGSGKPGSGEGSTKG
Description: as §1

[6] = target: T7, SEQ ID NO: 490 GKPGSGEGSTKG (also: biotin on N-terminus or on added C-terminal Lys, which not given here); experiment: epitope mapping ELISA: antibody captured on Protein G plate, biotinylated peptide, streptavidin-HRP, chemiluminescence
T7 peptide: GKPGSGEGSTKG
Description: as §1

[7] = target: T8, SEQ ID NO: 496 GSTSGSGKPGSGE (also: biotin on N-terminus or on added C-terminal Lys, which not given here); experiment: as above
T8 peptide: GSTSGSGKPGSGE
Description: as §1

[8] = target: T9, SEQ ID NO: 498 KPGSGEGSTKG (also: biotin on N-terminus or on added C-terminal Lys, which not given here); experiment: as above
T9 peptide: KPGSGEGSTKG
Description: as §1

[9] = target: T10, SEQ ID NO: 489 GSGKPGSGEGSTKG (also: biotin on N-terminus or on added C-terminal Lys, which not given here); experiment: as above
T10 peptide: GSGKPGSGEGSTKG
Description: as §1

[10] = target: T11, SEQ ID NO: 486 GSTSGSGKPGSGEG (also: biotin on N-terminus or on added C-terminal Lys, which not given here); experiment: as above
T11 peptide: GSTSGSGKPGSGEG
Description: as §1

[11] = target: T12, SEQ ID NO: 485 GSTSGSGKPGSGEGST (also: biotin on N-terminus or on added C-terminal Lys, which not given here); experiment: as above
T12 peptide: GSTSGSGKPGSGEGST
Description: as §1

[12] = target: T13, SEQ ID NO: 497 SGKPGSGEGSTKG (also: biotin on N-terminus or on added C-terminal Lys, which not given here); experiment: as above
T13 peptide: SGKPGSGEGSTKG
Description: as §1

Measured: binding result

B1: Clone 16 anti-linker antibody (antibody, V domains shown)
VH: QSLEESGGRLVTPGTPLTLTCTVSGSDISSYHMGWVRQAPGKGLEYIGIIVSSGSAYYATWAKGRFTISRTSTTVDLKITSPTTEDSATYFCARNQYSGYGFSFWGPGTLVTVSS
VL: AVVLTQTPSPVSTAVGGTVTINCQSSHSVYYGDWLAWYQQKPGQPPKLLIYRASNLASGVPSRFKGSGSGTQFTLTISGVQCDDAATYYCLGGYDDDGETAFGGGTEVVVKD
notes: Rabbit monoclonal from a hybridoma; also called Clone 16-6; 16-6
binds: all assays above

B2: Clone 8 anti-linker antibody (antibody, V domains shown)
VH: QSVEESGGRLVTPGTPLTLTCTASGFTISNLAIIWVRQAPGKGLEYIGDIDGRGDIYCATWAKGRFTISKTSTTLDLRFTSPTTEDTATYFCAVDGDGSGWGDFNFWGPGTLVTVSS
VL: AYDMTQTPASVEVAVGGTVSIKCQASQSISTALAWYQQKPGQPPKLLIYRASTLASGVSSRFKGSGSGTQFTLTISGVECDDAATYYCQQGWSTVNVDNVFGGGTEVVVRD
notes: Rabbit monoclonal from a hybridoma; also called Clone 8-4; 8-4
not listed: [2] | [8]
binds: all other assays above
